Source: US20170073406A1

Key:
[1] = molecular target: biotinylated His-tagged TGF-β1 LAP C4S (Homo sapiens (Human)) (UniProt P01137); assay: ELISA, neutravidin plate with biotinylated His-tagged TGF-β1 LAP C4S; antibody dilution 1:1,000; fluorescent secondary detection
[2] = molecular target: biotinylated His-tagged TGF-β1 LAP C4S (Homo sapiens (Human)) (UniProt P01137); assay: ELISA, neutravidin plate with biotinylated His-tagged TGF-β1 LAP C4S; antibody dilution 1:5,000; fluorescent secondary detection
[3] = molecular target: biotinylated His-tagged TGF-β1 LAP C4S (Homo sapiens (Human)) (UniProt P01137); assay: ELISA, neutravidin plate with biotinylated His-tagged TGF-β1 LAP C4S; antibody dilution 1:10,000; fluorescent secondary detection

Chain of biotinylated His-tagged TGF-β1 LAP C4S (Homo sapiens (Human)) (P01137 other isoform, or with tags, fused parts or gaps limits assumed): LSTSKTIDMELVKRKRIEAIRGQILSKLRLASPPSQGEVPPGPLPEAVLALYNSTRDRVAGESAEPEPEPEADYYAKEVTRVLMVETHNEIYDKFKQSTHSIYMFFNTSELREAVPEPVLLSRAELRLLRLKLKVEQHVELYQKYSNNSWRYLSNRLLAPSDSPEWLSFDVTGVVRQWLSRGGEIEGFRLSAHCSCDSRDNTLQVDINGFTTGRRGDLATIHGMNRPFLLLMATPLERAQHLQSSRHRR

B1: 1D11 antibody (mouse monoclonal anti-TGF-β1, 2 and 3 antibody, R&D Systems, Minneapolis, Minn.) (antibody, from another filing, V domains shown)
VH: QVQLQQSGPELVRPGASVKLSCKASGYIFITYWMNWVKQRPGQGLEWIGQIFPASGSTNYNEMFEGKATLTVDTSSSTAYMQLSSLTSEDSAVYYCARGDGNYALDAMDYWGQGTSVTVSS
VL: DIVLTQSPASLAVSLGQRATISCRASESVDSYGNSFMHWYQQKSGQPPKLLIYLASNLESGVPARFSGSGSRTDFTLTIDPVEADDAATYYCQQNNEDPLTFGAGTKLEIK
With B1 the RFU [1] was 218 RFU, the RFU [2] was 214 RFU and the RFU [3] was 198 RFU.
